According to the supplement of paper PMC9112550, “Optimization of the antimicrobial peptide Bac7 by deep mutational scanning” (BMC Biology, 2022):

Test system: Escherichia coli TOP10
Test: shrunken log2 fold change of peptide-encoding DNA abundance (4.5 h post-induction vs induction); higher = less antimicrobial activity (less host growth inhibition)
Conditions: time post-induction: 4.5 h; library: site-saturation at positions 5, 18, 19, 20
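Note: peptides expressed intracellularly from a pBAD plasmid library in pooled LB shake-flask culture, induced with 0.3% L-arabinose, DNA abundance read by NGS, three biological replicates, DESeq2 with apeglm shrinkage.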

Sequence	shrunken log2 fold change
RRIRDRPPRLPRPRPRPRWKPRP	0.0064
RRIRDRPPRLPRPRPRPRWMPRP	-0.176
RRIRDRPPRLPRPRPRPRYEPRP	0.223
RRIRDRPPRLPRPRPRPSAEPRP	0.162
RRIRDRPPRLPRPRPRPSAPPRP	0.0189
RRIRDRPPRLPRPRPRPSDGPRP	0.166
RRIRDRPPRLPRPRPRPSEFPRP	-0.0277
RRIRDRPPRLPRPRPRPSETPRP	-0.0751
RRIRDRPPRLPRPRPRPSFEPRP	0.495
RRIRDRPPRLPRPRPRPSFGPRP	-0.0644
RRIRDRPPRLPRPRPRPSGEPRP	0.0799
RRIRDRPPRLPRPRPRPSGFPRP	0.029
RRIRDRPPRLPRPRPRPSGNPRP	0.499
RRIRDRPPRLPRPRPRPSHCPRP	-0.29
RRIRDRPPRLPRPRPRPSHDPRP	-0.339
RRIRDRPPRLPRPRPRPSHWPRP	-0.178
RRIRDRPPRLPRPRPRPSIDPRP	-0.145
RRIRDRPPRLPRPRPRPSIPPRP	-0.43
RRIRDRPPRLPRPRPRPSKHPRP	-0.263
RRIRDRPPRLPRPRPRPSKIPRP	-0.381
RRIRDRPPRLPRPRPRPSMPPRP	-0.164
RRIRDRPPRLPRPRPRPSNLPRP	-0.0257

Sequence	shrunken log2 fold change
RRIRDRPPRLPRPRPRPSNPPRP	-0.281
RRIRDRPPRLPRPRPRPSPCPRP	-0.0819
RRIRDRPPRLPRPRPRPSPNPRP	0.122
RRIRDRPPRLPRPRPRPSPTPRP	-0.0251
RRIRDRPPRLPRPRPRPSQCPRP	-0.034
RRIRDRPPRLPRPRPRPSRLPRP	0.0232
RRIRDRPPRLPRPRPRPSRYPRP	-0.219
RRIRDRPPRLPRPRPRPSTQPRP	0.445
RRIRDRPPRLPRPRPRPSTSPRP	-0.115
RRIRDRPPRLPRPRPRPSWAPRP	-0.102
RRIRDRPPRLPRPRPRPSYWPRP	-0.0689
RRIRDRPPRLPRPRPRPTAMPRP	0.858
RRIRDRPPRLPRPRPRPTDKPRP	-0.118
RRIRDRPPRLPRPRPRPTECPRP	-0.0183
RRIRDRPPRLPRPRPRPTENPRP	0.277
RRIRDRPPRLPRPRPRPTFFPRP	2.16
RRIRDRPPRLPRPRPRPTFHPRP	-0.148
RRIRDRPPRLPRPRPRPTFRPRP	-0.0707
RRIRDRPPRLPRPRPRPTFYPRP	-0.286
RRIRDRPPRLPRPRPRPTGSPRP	0.0325
RRIRDRPPRLPRPRPRPTKGPRP	0.0341
RRIRDRPPRLPRPRPRPTLSPRP	0.262

Sequence	shrunken log2 fold change
RRIRDRPPRLPRPRPRPTNMPRP	-0.00949
RRIRDRPPRLPRPRPRPTNRPRP	-0.149
RRIRDRPPRLPRPRPRPTPEPRP	0.152
RRIRDRPPRLPRPRPRPTPIPRP	0.103
RRIRDRPPRLPRPRPRPTQVPRP	0.0721
RRIRDRPPRLPRPRPRPTRGPRP	0.67
RRIRDRPPRLPRPRPRPTRQPRP	0.228
RRIRDRPPRLPRPRPRPTSMPRP	0.104
RRIRDRPPRLPRPRPRPTTDPRP	0.547
RRIRDRPPRLPRPRPRPTTSPRP	0.335
RRIRDRPPRLPRPRPRPTVFPRP	0.708
RRIRDRPPRLPRPRPRPTWTPRP	-0.043
RRIRDRPPRLPRPRPRPVCDPRP	0.696
RRIRDRPPRLPRPRPRPVCVPRP	0.514
RRIRDRPPRLPRPRPRPVCYPRP	-0.0717
RRIRDRPPRLPRPRPRPVDFPRP	0.0775
RRIRDRPPRLPRPRPRPVDVPRP	-0.185
RRIRDRPPRLPRPRPRPVEEPRP	0.525
RRIRDRPPRLPRPRPRPVEPPRP	0.0157
RRIRDRPPRLPRPRPRPVFMPRP	0.11
RRIRDRPPRLPRPRPRPVFWPRP	0.639
RRIRDRPPRLPRPRPRPVGHPRP	0.423

Sequence	shrunken log2 fold change
RRIRDRPPRLPRPRPRPVGSPRP	0.519
RRIRDRPPRLPRPRPRPVHNPRP	-0.585
RRIRDRPPRLPRPRPRPVHWPRP	0.31
RRIRDRPPRLPRPRPRPVIGPRP	0.16
RRIRDRPPRLPRPRPRPVKQPRP	-0.0215
RRIRDRPPRLPRPRPRPVKVPRP	-0.0343
RRIRDRPPRLPRPRPRPVKYPRP	-0.346
RRIRDRPPRLPRPRPRPVLHPRP	0.0367
RRIRDRPPRLPRPRPRPVLIPRP	-0.0161
RRIRDRPPRLPRPRPRPVLLPRP	-0.00551
RRIRDRPPRLPRPRPRPVNAPRP	0.188
RRIRDRPPRLPRPRPRPVNHPRP	-0.514
RRIRDRPPRLPRPRPRPVPAPRP	0.341
RRIRDRPPRLPRPRPRPVPDPRP	-0.0933
RRIRDRPPRLPRPRPRPVPIPRP	0.245
RRIRDRPPRLPRPRPRPVPSPRP	0.314
RRIRDRPPRLPRPRPRPVQIPRP	-0.0711
RRIRDRPPRLPRPRPRPVQKPRP	-0.0131
RRIRDRPPRLPRPRPRPVQTPRP	-0.0375
RRIRDRPPRLPRPRPRPVRYPRP	0.152
RRIRDRPPRLPRPRPRPVSIPRP	-0.105
RRIRDRPPRLPRPRPRPVVHPRP	0.0965

Sequence	shrunken log2 fold change
RRIRDRPPRLPRPRPRPVVQPRP	-0.0248
RRIRDRPPRLPRPRPRPVYFPRP	-0.447
RRIRDRPPRLPRPRPRPWCMPRP	-1
RRIRDRPPRLPRPRPRPWHVPRP	0.015
RRIRDRPPRLPRPRPRPWIKPRP	0.00902
RRIRDRPPRLPRPRPRPWITPRP	-0.123
RRIRDRPPRLPRPRPRPWLFPRP	0.0977
RRIRDRPPRLPRPRPRPWLNPRP	-0.277
RRIRDRPPRLPRPRPRPWLRPRP	0.081
RRIRDRPPRLPRPRPRPWMRPRP	0.013
RRIRDRPPRLPRPRPRPWMYPRP	-0.267
RRIRDRPPRLPRPRPRPWNQPRP	-0.0409
RRIRDRPPRLPRPRPRPWPCPRP	0.462
RRIRDRPPRLPRPRPRPWPFPRP	0.0405
RRIRDRPPRLPRPRPRPWQWPRP	-0.0124
RRIRDRPPRLPRPRPRPWRHPRP	0.0719
RRIRDRPPRLPRPRPRPWSNPRP	-0.678
RRIRDRPPRLPRPRPRPWTLPRP	-0.424
RRIRDRPPRLPRPRPRPWVIPRP	-0.00136
RRIRDRPPRLPRPRPRPWVKPRP	0.0766
RRIRDRPPRLPRPRPRPWVVPRP	0.0765
